Here are results for twelve molecules from US20170369542A1 (Pieris, published 2017).

T1: synthetic non-modified human Hepcidin-25 (human, not fully specified)
T1 peptide: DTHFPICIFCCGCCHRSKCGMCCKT

T2: cynomolgus Hepcidin-25 (cynomolgus, UniProt A7XEI3 60-84, not fully specified)
T2 construct: mature
T2 peptide: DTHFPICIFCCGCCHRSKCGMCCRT

T3: C-terminal biotinylated human Hepcidin-25 (human, not fully specified; biotinylated via a Lysine residue coupled to the C-terminus via a Mini-PEG linker)
T3 construct: Bought from Bachem AG; Captured on plates via Neutravidin; also called C-terminal biotinylated hepcidin; C-terminal biotinylated hHepcidin
T3 peptide: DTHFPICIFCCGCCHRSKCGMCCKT

B1: lipocalin mutein of SEQ ID NO: 1, linked to albumine-binding domain (ABD) (SEQ ID NO: 15) (designed binder)
chain: QDSTSDLIPAPPLSKVPLQQNFQDNQFHGKWYVVGLAGNEVLREDKDPMKMWATIYELEEDKSYNVTIVMFLAKKCEYLFQTFVPGSQPGEFTLGDIKSSPGRTSGLVRVVSTNYNQHAMVFFKVVWQNREVFWITLYGRTKELTSELKENFIRFSKSLGLPENHIVFPVPIDQCIDGSAGAVDANSLAEAKVLANRELDKYGVSDYYKNLINNAKTVEGVKALIDEILAALPSAWSHPQFEK
notes: also called ABD-fusion protein
B2: lipocalin mutein of SEQ ID NO: 7 (designed binder)
chain: QDSTSDLIPAPPLSKVPLQQNFQDNQFHGKWYVVGLAGNRVLREDKDPQKMFATIYELKEDKSYNVTGVDFRTKKCLYSIGTFVPGSQPGEFTLGVIKSQPGWTSYLVRVVSTNYNQHAMVFFKTVWQNREVFWITLYGRTKELTSELKENFIRFSKSLGLPENHIVFPVPIDQCIDG
notes: also called Lcn2 mutein
B3: lipocalin mutein of SEQ ID NO: 10 (designed binder)
chain: QDSTSDLIPAPPLSKVPLQQNFQDNQFHGKWYVVGLAGNEILREDKDPMKMWATIYELKEDRSYNVTIVMFLAKKCEYLFQTFVPGSQPGEFTLGDIKSSPGRTSGLVRVVSTNYNQHAMVFFKVVWQNREVFWITLYGRTKELTPELKENFIRFSKSLGLPENHIVFPVPIDQCIDGF
notes: also called Lcn2 mutein
B4: lipocalin mutein of SEQ ID NO: 11 (designed binder)
chain: QDSTSDLIPAPPLSKVPLQQNFQDNQFHGKWYVVGLAGNEILREDKDPMKMWATIYELKEDKSYNVTIVMFLAKKCEYLFQTFVPGSQPGEFTLGDIKSSPGRTSGLVRVVSTNYNQHAMVFFKVVWQNREVFWITLYGRTKELTSGLKENFIRFSKSLGLPENHIVFPVPIDQCIDG
notes: also called Lcn2 mutein
B5: lipocalin mutein of SEQ ID NO: 14, linked to PEG40 (designed binder)
chain: B4 chain with I41V, K59E, S87C, V125T, G147E
modifications: branched 40k PEG-maleimide on the free Cys at position 87
notes: hNGAL mutein with Ser 87 back-mutated to Cys and PEGylated there
B6: lipocalin mutein of SEQ ID NO: 4 (designed binder)
chain: QDSTSDLIPAPPLSKVPLQQNFQDNQFHGKWYVVGVAGNEMLREDKDPLKMLATIYELKEDKSYNVTRVMFEYKKCVYLIETFVPGSQPGEFTLGTIKSVPGLTSGLVRVVSTNYNQHAMVFFKRVWQNREVFWITLYGRTKELTSELKENFIRFSKSLGLPENHIVFPVPIDQCIDG
notes: also called Lcn2 mutein
B7: lipocalin mutein of SEQ ID NO: 6 (designed binder)
chain: QDSTSDLIPAPPLSKVPLQQNFQDNQFHGKWYVVGLAGNEILREDKDPLKMWATIYELKEDKSYNVTRVQFGEKKCGYGIETFVPGSQPGEFTLGSIKSVPGGTSRLVRVVSTNYNQHAMVFFKFVWQNREVFWITLYGRTKELTSELKENFIRFSKSLGLPENHIVFPVPIDQCIDG
notes: also called Lcn2 mutein
B8: lipocalin mutein of SEQ ID NO: 2 (designed binder)
chain: QDSTSDLIPAPPLSKVPLQQNFQDNQFHGKWYVVGTAGNSILREDKDPQKMWATIYELKEDKSYNVTRVFFEGKKCRYVIETFVPGSQPGEFTLGKIKSAPGGTSILVRVVSTNYNQHAMVFFKVVWQNRELFWITLYGRTKELTSELKENFIRFSKSLGLPENHIVFPVPIDQCIDG
notes: also called Lcn2 mutein
B9: lipocalin mutein of SEQ ID NO: 5 (designed binder)
chain: QDSTSDLIPAPPLSKVPLQQNFQDNQFHGKWYVVGAAGNSLLREDKDPMKMWATIYELKEDKSYNVTRVNFGGKKCSYLIETFVPGSQPGEFTLGSIKSRPGATSVLVRVVSTNYNQHAMVFFKLVTQNREVFWITLYGRTKELTSELKENFIRFSKSLGLPENHIVFPVPIDQCIDG
notes: also called Lcn2 mutein
B10: lipocalin mutein of SEQ ID NO: 3 (designed binder)
chain: QDSTSDLIPAPPLSKVPLQQNFQDNQFHGKWYVVGVAGNGLLREDKDPLKMHATIYELKEDKSYNVTRVLFVRKKCRYYISTFVPGSQPGEFTLGRIKSEPGRTSFLVRVVSTNYNQHAMVFFKMVWQNREVFWITLYGRTKELTSELKENFIRFSKSLGLPENHIVFPVPIDQCIDG
notes: also called Lcn2 mutein
B11: lipocalin mutein of SEQ ID NO: 9 (designed binder)
chain: B4 chain with I41V, F71S
notes: also called Lcn2 mutein
B12: lipocalin mutein of SEQ ID NO: 12 (designed binder)
chain: B4 chain with I41V, K74E, K75E, G147E, E150K
notes: also called Lcn2 mutein

A word on the Kd: it is the free concentration of one partner at which half of the binding sites on the other are occupied at equilibrium, for simple one-to-one binding. Higher therefore signals a looser complex. As usually defined, the IC50 is the midpoint of a concentration-inhibition curve. Read a low IC50 as higher potency.

Substitutions are numbered along the chain they refer to.

One experiment has as its target T1, synthetic non-modified human Hepcidin-25. Kind of experiment: cell-based or functional assay.
Take B1: the “IC50 of neutralization of hepcidin-induced (40 nM) internalization and degradation of FPN-GFP in T-REx-293 cells, GFP fluorescence by flow cytometry” value (“IC50 of neutralization … by flow cytometry” for short) came to 39 nM.
Same read-out and setting: under B2 stands 79 nM.
Regarding B3, the “IC50 of neutralization … by flow cytometry” value was 25 nM.
The same measure, in the same setting: under B4 stands 31 nM.
On the same count and under the same terms, the same measure for B5: 25 nM.
Take B6: the “IC50 of neutralization … by flow cytometry” value came out at 62 nM.
On the same count and under the same terms, under B7 stands 65 nM; under B8, 62 nM.

A further experiment addresses T2, cynomolgus Hepcidin-25. The experiment can be described thus: direct ELISA on cynomolgus hep-25, mutein titrated. Here is the method: (§1) A “direct” ELISA was performed to verify the binding affinity and specificity of the selected Lcn2 muteins. Therefore, a constant concentration of 1 μg/ml C-terminal biotinylated hepcidin (Bachem AG, CH) was captured on the surface of a polystyrol plate (Greiner, GE) via Neutravidin (Thermo Scientific, 5 μg/ml). Two step dilution series of purified Lcn2 muteins were incubated with the captured hepcidin for 1 h at room temperature and detected either via the Strep-tag II using a rabbit anti-strep-tag II polyconal antibody (GenScript, USA) or by using a scaffold-specific polyclonal rabbit antibody. In both cases an anti rabbit IgG-HRP conjugate (Abcam, UK) was employed as secondary detection antibody.
(§2) The absorption ΔA at […] was measured in an ELISA reader (Tecan, GE) and the data were fitted with Graphpad Prism software (Statcom, USA).
In general terms: In an ELISA, binding on a coated surface is turned into a signal by an enzyme label.
For B1, the Kd amounted to 0.22 nM.
Still for that read-out and setting: under B2 stands 0.22 nM; under B3, 0.82 nM; under B9, 6.83 nM.
Molecule B10 returned a Kd of 0.59 nM.
In turn, B11 had a dissociation constant (Kd) of 1.14 nM.
Still for that read-out and setting: the same measure for B4: 0.61 nM.
The molecule B5 returned an equilibrium dissociation constant (Kd) of 1.36 nM.
Still for that read-out and setting: under B12 stands 0.96 nM; under B6, 2.03 nM; under B7, 0.79 nM.
On to B8, for which the Kd is 3.15 nM.

In another experiment the target is T3, C-terminal biotinylated human …. The experiment can be described thus: direct ELISA, biotinylated hepcidin captured via Neutravidin, mutein titrated. Here is the method:
as §1, §2
Molecule B1 had a Kd of 0.48 nM.
Same read-out and setting: the same measure for B2: 0.48 nM; for B3: 0.75 nM.
Regarding B9, the Kd was determined as 4.13 nM. Against the preceding molecule, the Kd is about 5.5-fold higher.
Still for that read-out and setting: under B10 stands 0.84 nM; under B11, 0.75 nM; under B4, 0.64 nM.
In turn, B5 returned a Kd of 2.18 nM. This Kd lies about 3.4-fold higher than the previous one.
The same measure, in the same setting: under B12 stands 0.64 nM; under B6, 1.39 nM.
Consider B7, for which the Kd was found to be 0.76 nM.
Still for that read-out and setting: under B8 stands 2.12 nM.

Another experiment has as its target T1, synthetic non-modified human Hepcidin-25. The experiment can be described thus: competition ELISA: non-biotinylated human hepcidin-25 titrated against a constant concentration of mutein; free mutein detected on plate-captured biotinylated human hepcidin. On the procedure: The binding affinity of the Lcn2 muteins to non-modified hepcidin-25 in solution was evaluated in a competition ELISA approach. Therefore, a constant concentration of 1 μg/ml C-terminal biotinylated human hepcidin (Bachem AG, CH) was captured on the surface of a polystyrol plate (Greiner, GE) via Neutravidin (Thermo Scientific, 5 μg/ml, GE). In parallel a two step dilution series of non-biotinylated human hepcidin starting from 1 μM was incubated with a constant concentration of hepcidin-specific mutein for 1 h at room temperature in a non-protein binding 96 well polypropylene plate (Nunc, GE). The constant concentration of lipocalin muteins corresponds to the EC₅₀ of the respective muteins as determined in a direct ELISA as described above in this example. In the following the mixture of non-modified human hepcidin and lipocalin mutein was transferred onto the hepcidin-captured Neutravidin plate. The C-terminal biotinylated hepcidin was allowed to compete with the non-modified hepcidin for Anticalin binding for 20 min. at room temperature. During these 20 min, free lipcocalin mutein was bound to the captured hepcidin and detected via a rabbit anti-strep-tag II polyconal antibody (GenScript, USA). A goat anti-rabbit IgG-HRP conjugate (Abcam, UK) was employed as secondary detection antibody. Parallel to the competition assay, anticalin binding was determined on the same plate in a “direct” ELISA, in order to obtain a standard curve linking the RFU values to anticalin concentration. This curve was then used to standardize competition data to the level of anticalins bounds to the plate and fitted with Graphpad software. IC₅₀ values correspond to the half-maximum amount of lipocalin mutein bound to the plate.
On to B1, for which the IC50 stood at 0.37 nM.
On the same count and under the same terms, under B2 stands 1.3 nM.
On the same count and under the same terms, the same measure for B3: 0.18 nM; for B9: 10.8 nM; for B10: 0.38 nM.
Same read-out and setting: the same measure for B11: 0.12 nM; for B4: 0.11 nM.
With B5, the half-maximal inhibitory concentration (IC50) is 1.17 nM.
B12 showed an IC50 of 0.17 nM.
On the same count and under the same terms, under B6 stands 0.6 nM; under B7, 1.7 nM; under B8, 9 nM.
